Source: publication PMC2955838

What was measured:
[1] = molecular target: vascular endothelial growth factor (VEGF) dimer (UniProt P15692); experiment: split reporter
Flt-1 (Homo sapiens) = Flt-1 (Homo sapiens) (UniProt P17948); details: cited from earlier work
Flt-1 (Homo sapiens), sequence (P17948 27-1338): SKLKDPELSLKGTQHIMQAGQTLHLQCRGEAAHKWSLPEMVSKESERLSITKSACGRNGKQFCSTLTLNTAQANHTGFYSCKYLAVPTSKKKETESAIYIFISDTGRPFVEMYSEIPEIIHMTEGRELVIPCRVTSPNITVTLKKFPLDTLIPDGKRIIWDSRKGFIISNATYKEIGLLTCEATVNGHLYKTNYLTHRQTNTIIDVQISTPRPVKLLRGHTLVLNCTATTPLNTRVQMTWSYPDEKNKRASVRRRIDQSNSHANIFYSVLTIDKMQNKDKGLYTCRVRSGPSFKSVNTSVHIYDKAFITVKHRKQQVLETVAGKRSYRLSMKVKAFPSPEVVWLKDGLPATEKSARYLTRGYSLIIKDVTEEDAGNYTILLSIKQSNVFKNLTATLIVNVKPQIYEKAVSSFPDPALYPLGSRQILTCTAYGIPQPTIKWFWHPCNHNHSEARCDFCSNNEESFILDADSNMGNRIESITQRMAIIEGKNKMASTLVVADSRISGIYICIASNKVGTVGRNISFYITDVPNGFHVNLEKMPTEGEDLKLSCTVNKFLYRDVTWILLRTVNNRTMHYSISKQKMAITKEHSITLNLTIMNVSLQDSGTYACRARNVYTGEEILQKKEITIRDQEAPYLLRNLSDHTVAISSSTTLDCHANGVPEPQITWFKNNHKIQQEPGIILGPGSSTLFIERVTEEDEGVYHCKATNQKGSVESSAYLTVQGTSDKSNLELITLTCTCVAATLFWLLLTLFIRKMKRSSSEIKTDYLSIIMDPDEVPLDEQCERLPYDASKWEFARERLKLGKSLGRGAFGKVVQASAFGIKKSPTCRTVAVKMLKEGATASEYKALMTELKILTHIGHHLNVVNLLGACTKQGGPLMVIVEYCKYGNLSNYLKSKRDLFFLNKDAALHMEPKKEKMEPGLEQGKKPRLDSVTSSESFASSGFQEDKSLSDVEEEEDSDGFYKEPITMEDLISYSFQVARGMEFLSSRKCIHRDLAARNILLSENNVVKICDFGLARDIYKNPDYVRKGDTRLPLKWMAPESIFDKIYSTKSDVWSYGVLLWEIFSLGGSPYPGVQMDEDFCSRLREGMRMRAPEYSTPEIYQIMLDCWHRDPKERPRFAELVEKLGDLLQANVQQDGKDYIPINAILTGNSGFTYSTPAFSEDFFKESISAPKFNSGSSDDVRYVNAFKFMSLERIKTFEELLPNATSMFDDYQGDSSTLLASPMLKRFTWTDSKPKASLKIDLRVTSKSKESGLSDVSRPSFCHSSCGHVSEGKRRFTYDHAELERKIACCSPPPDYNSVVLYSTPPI

VEGF, sequence (P15692 whole entry): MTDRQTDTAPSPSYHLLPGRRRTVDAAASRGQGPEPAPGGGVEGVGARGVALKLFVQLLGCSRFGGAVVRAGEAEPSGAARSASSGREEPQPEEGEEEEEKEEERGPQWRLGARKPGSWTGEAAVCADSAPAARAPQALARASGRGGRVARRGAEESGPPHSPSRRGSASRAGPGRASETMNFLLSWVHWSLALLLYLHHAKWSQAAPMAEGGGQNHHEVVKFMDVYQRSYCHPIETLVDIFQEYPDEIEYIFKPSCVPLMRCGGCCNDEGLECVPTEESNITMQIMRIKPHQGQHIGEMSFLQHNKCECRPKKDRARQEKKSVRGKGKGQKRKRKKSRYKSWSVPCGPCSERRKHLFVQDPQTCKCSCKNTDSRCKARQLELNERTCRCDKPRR
Flt-1 domain 2 fused to the C-terminal half of firefly luciferase (domain or fragment), sequence (P17948 27-1338): as the sequence (P17948 27-1338) above
Flt-1 domain 2 fused to the N-terminal half of firefly luciferase (domain or fragment), sequence (P17948 27-1338): as above

Flt-1 domain 2 fused to the N-terminal half of firefly luciferase (domain or fragment)
fold increase in luminescence [1]: > 13 fold

Flt-1 domain 2 fused to the C-terminal half of firefly luciferase (domain or fragment)
fold increase in luminescence [1]: > 13 fold

VEGF (from UniProt P15692)
Kd (Flt-1 (Homo sapiens)): 1.4 nM
